The record followed here is publication PMC8207216.

The data set concerns the target APE1 wild type (human) (UniProt P27695). Kind of data set: EMSA. The settings on record: 1 mM EDTA (no catalysis); apparent KD; N at position 16 of strand 1 = abasic ribonucleotide analog (tetrahydrofuran with 2'-OH); EMSA: 2 nM DNA, 0-20 nM APE1, 50 mM Tris pH 8, 1 mM EDTA, 0.2 mg/ml BSA, 1 mM DTT, 5% sucrose, 30 min on ice, 10% native gel. (In general: A gel shift assay detects complexes by their altered migration in electrophoresis.)
UniProt P27695, sequence (P27695 whole entry): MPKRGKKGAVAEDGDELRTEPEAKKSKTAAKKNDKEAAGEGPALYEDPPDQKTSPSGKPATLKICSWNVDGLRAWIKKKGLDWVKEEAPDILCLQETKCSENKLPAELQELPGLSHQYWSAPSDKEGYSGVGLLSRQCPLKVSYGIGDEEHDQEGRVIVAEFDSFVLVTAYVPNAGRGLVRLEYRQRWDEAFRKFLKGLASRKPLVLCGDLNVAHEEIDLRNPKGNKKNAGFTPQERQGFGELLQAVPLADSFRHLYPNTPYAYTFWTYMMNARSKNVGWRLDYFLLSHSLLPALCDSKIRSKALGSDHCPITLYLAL

pKd: −log10 of the molar value.

The pKd is −log10 of the Kd, conventionally taken in molar units. On to “CGTTCGCTGATGCGCNCGACGGATCCGCAT / ATGCGGATCCGTCGAGCGCATCAGCGAACG [30-mer rAP DNA]”, for which the negative-log Kd (pKd) was 8.54.
